# Reference: patent publication US20160272953A1, “Activated Sugars” (ZuChem, Inc., priority 2010, published 2016)
# B1: S. thermophilus: Streptococcus thermophilus wild-type sugar-1-kinase (SEQ ID NO:8) (protein, listed as Streptococcus thermophilus)
# chain: MNTSQLREKFKEVFGVEADHTFFSPGRINLIGEHTDYNGGNVLPVAITLGTYGAARKRDDKVLRFFSANFEEKGIIEVPLENLRFEKEHNWTNYPKGVLHFLQEAGHTIDSGMDIYIYGNIPNGSGLSSSSSLELLIGVIVEKLYDIKLERLDLVKIGKQTENDFIGVNSGIMDQFAIGMGADQCAIYLDTNTLKYDLVPLDLKDNVVVIMNTNKRRELADSKYNERRAECETAVSELQEKLDIQTLGELDFLTFDAYSYLIKDENRIKRARHVVLENQRTLQARKALEAGDLEGFGRLMNASHVSLEYDYEVTGLELDTLAHTAWEQEGVLGARMTGAGFGGCAIALVNKDKVEDFKKAVGQRYEEVVGYAPSFYIAEVTGGSRVLD
# B2: T. thermophilus: Thermus thermophilus wild-type sugar-1-kinase (SEQ ID NO:9) (protein, listed as Thermus thermophilus)
# chain: MGFQEVYGVLPQASAQAPGRVNLLGEHTDYQEGYVLPTPIPYFTRVEAAPLEGAVEAFSENLGELRARPLSSPPQGDFLDYLLGVVRALREAGHEVAGARFYVRSDLPMGAGLSSSAALEVAALRALRTLYRLPLSDLEVARLAQKAEVEYVGVRCGIMDQMAASLGQPGQALFLDTRTLAYENLPLPPGVRVAVLDLGLGRRLAEAGYNRRRQEAEEAAKRLGVRSLRDVADLCLVESLPSPLDRRARHVVSENLRVLRGVEALRRGDARAFGELMTQSHRSLAQDYEVNLPELDALVEEALRAGAYGAKLTGAGFGGAVVALVAESRFPAFREALARRFPDLKVL
# B3: P. furiousus: Pyrococcus furiosus wild-type sugar-1-kinase (SEQ ID NO:10) (protein, listed as Pyrococcus furiosus)
# chain: MSKITVKSPGRVNLIGEHTDYTYGYVMPMAIDLYTIITAEKYDKVQLYSEHFNEEKTFTLDNLTKEGSWIDYVKGVLWVLIQEGYKIGGLKGKITGDLPLGAGLSSSASFEVGILEVLNQLYNLNIDPLKKALLAKKAENEFVGVPCGILDQFAVVFGKKDNVIFLDTQTLQYEYIPFPKDVSVLVFYTGVKRELASSEYAERKRIAEESLRILGKESSKEVTEKDLGKLPPLHRKFFSYIVRENARVLEVRDALKEGDIEKVGKILTTAHWDLAENYRVSCEELDFFVKKAMELGAYGARLTGAGFGGSAIALVDKDKAKTIGDAILREYLAKFSWKAKYFVVKPSDGVGV
# Assay: Sugar kinase activity of cell lysates with D-galactose at 37, 45, 55° C. (DNS assay)
# Type: biochemical
# Details: 8 mM D-galactose; 37, 45 and 55° C.
# From the text: The formation of a phosphorylated sugar by kinase activity can be monitored by a number of methods. One method for detecting sugar-1-kinase activity is the 3,5-dinitrosalicylic acid (DNS) assay. This assay exploits the fact that reducing sugars can reduce compounds such as 3,5-dinitrosalicylic acid, which undergo a color change upon reduction. This assay can be used for sugar-1-kinases since the product of their reaction (sugar-1-phosphate) no longer has the ability to reduce DNS. Therefore, when the reaction is complete no color change occurs when incubated with DNS and the result is a yellow color. However, when reducing sugar remains, the result is reduction of DNS and red/brown color. This assay is furthermore concentration dependent providing a linear color change from 0.1 to 10 mM reducing sugar.
# The sugar kinase proteins were expressed recombinantly in E. coli induced with 0.5mM IPTG and partially purified cell lysates were then assayed (100 μL) with 400 μmM ATP, 3.5 mM Mg^2+, and 8 mM D-galactose at three different temperatures, 37, 45, and 55° C. […] A negative control was treated similarly and consisted of the host strain with empty plasmid.
row,Molecule,activity in partially purified cell extract
1,B1,most activity
2,B2,more active at temperatures higher than 37 °C
3,B3,more active at temperatures higher than 37 °C
